Results from patent US20230139516.

Molecular target: 6×His-c-Myc, P01106
Sequence (P01106 16-454): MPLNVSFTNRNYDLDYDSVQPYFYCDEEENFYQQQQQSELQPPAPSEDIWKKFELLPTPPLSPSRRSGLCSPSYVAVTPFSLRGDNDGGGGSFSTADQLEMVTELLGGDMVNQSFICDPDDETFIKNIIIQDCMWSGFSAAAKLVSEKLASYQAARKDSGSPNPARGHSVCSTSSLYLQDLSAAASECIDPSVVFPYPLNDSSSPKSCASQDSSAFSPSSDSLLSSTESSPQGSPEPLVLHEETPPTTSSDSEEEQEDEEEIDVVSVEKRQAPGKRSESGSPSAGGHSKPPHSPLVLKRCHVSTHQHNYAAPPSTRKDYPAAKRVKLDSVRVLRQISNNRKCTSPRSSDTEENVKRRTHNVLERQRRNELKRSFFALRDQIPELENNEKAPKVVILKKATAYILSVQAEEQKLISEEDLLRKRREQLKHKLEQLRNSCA

B1: GST-MKK7 (protein)
chain: MAASSLEQKLSRLEAKLKQENREARRRIDLNLDISPQRPRPTLQLPLANDGGSRSPSSESSPQHPTPPARPRHMLGLPSTLFTPRSMESIEIDQKLQEIMKQTGYLTIGGQRYQAEINDLENLGEMGSGTCGQVWKMRFRKTGHVIAVKQMRRSGNKEENKRILMDLDVVLKSHDCPYIVQCFGTFITNTDVFIAMELMGTCAEKLKKRMQGPIPERILGKMTVAIVKALYYLKEKHGVIHRDVKPSNILLDERGQIKLCDFGISGRLVDSKAKTRSAGCAAYMAPERIDPPDPTKPDYDIRADVWSLGISLVELATGQFPYKNCKTDFEVLTKVLQEEPPLLPGHMGFSGDFQSFVKDCLTKDHRKRPKYNKLLEHSFIKRYETLEVDVASWFKDVMAKTESPRTSGVLSQPHLPFFR
For B1, the “in vitro kinase assay, immunoblot for p-c-Myc-Ser62” value was “recombinant MKK7 could directly phosphorylate c-Myc-Ser62”.
